Source: the domain aggregation screens of Martell et al. (2025)

Assay: soluble fraction after stress (log2 fold change); higher = more stays soluble; pooled small domains, quantitative proteomics
Settings: stress: 75 degC
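Also: 20 min heating vs room temperature control held 20 min.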

Question: With “HMKIVQHQLQLPVHVAGKFKGMFYKSDFVMSEDYDDDGNMILAVRLPLVDWNKFLKRTDNELSQYIKVTP” as the sequence, how does the “soluble fraction (log2)” value read?
Answer: -1.64

Question: Which “soluble fraction (log2)” value does the source give for “HMKKALTAEQEARVRELYFRGINYYSANRYQDAIAEWRKVLAIDPNHEKAKNNIRQTLILLK” here?
Answer: -1.26

Question: With “HMKKDNLKKIKSIDEDIENELFKLGIYHFEQISIWSSKNAEWIENFLNLPNYVRANQWVEQAKILK” as the sequence, how does the “soluble fraction (log2)” value read?
Answer: -1.57

Question: Which “soluble fraction (log2)” value does the source give for “HMKKDRKKMLKEGIVLFEKILRGMELSPTSEPLKKVLTSFNIQNKEDLYVKLGAGVISSEEVIKELKKK” here?
Answer: -0.0286

Question: With “HMKKILIVTNRSAGMVVYTIPEEGIRREFTPGETKKIPFEELEKLAYLSGGRTLMENFLKIVDTETTEELG” as the sequence, how does the “soluble fraction (log2)” value read?
Answer: -2.24

Question: For “HMKKIYEEVSEAILTMIKNGTLKPGDKLLPVHQLAEQFQVGRSAVREALSALRAMGLIEMKQGEGTYVKNF”, which “soluble fraction (log2)” value is on record?
Answer: -1.52

Question: Which “soluble fraction (log2)” value does the source give for “HMKKKVDSENLLLDILKQMQPQASTNVLRKMLTNQRISVDDQIIHRAKHVVQEGQTVEIHPKP” here?
Answer: -0.0451

Question: For “HMKKLPEKFDYNEISGLRIEAQQKLNEFQPLNIGQASRISGVTPADISVLLVYLEQLKYSNPDLFFKLNPD”, which “soluble fraction (log2)” value is on record?
Answer: -1.52

Question: Which “soluble fraction (log2)” value does the source give for “HMKKLTAEEIQEAKDILEKIQEIPNFKKIFGDDTIKALENSTKTGVLLPDNIISKIHTLMIRFGIK” here?
Answer: -0.202

Question: For “HMKKMEEEFALFNAWVDRRLGIPLAAYKENQMQRRILTIMENSGAKTLREYQQLIEGDEGVRAAFLAHIT”, which “soluble fraction (log2)” value is on record?
Answer: -2.15

Question: Which “soluble fraction (log2)” value does the source give for “HMKKPIYLTIANDIEKKIFNNDYPKNERLPSERNLAEEYGVTRMTIRNSIEYLVSKGLLEKRLGSGNYVKR” here?
Answer: -1.55

Question: Which “soluble fraction (log2)” value does the source give for “HMKKPLEYIDVDKREDFPPVPNGMRYIHFYGGTKNYRAYIAPEDISRADFMEQYPEYVPEHN” here?
Answer: 0.237

Question: Which “soluble fraction (log2)” value does the source give for “HMKKSTLLLFFLKELLEGKKISLKSFALENDINIRTAQRYIEDIEEAFPDNLLKENDFYSFV” here?
Answer: -2.89

Question: Which “soluble fraction (log2)” value does the source give for “HMKKTETVRFTTNVTHGTKIKETDVEVVKISNSALPDKVVKNKTEVIGKYATADLFKGDFATENKVTD” here?
Answer: 0.142

Question: For “HMKKTIIVHVVGEVNTPGIVELNEGARIIDAINGAGGKTEEADMSKINLAYVIEDGSQIYVPSIYE”, which “soluble fraction (log2)” value is on record?
Answer: -0.387

Question: For “HMKKTITISNYINVRDFATMSELPVNSILSVLMKNGIFVSLNEKIDFDTAWLVGSELGLEVKQKQG”, which “soluble fraction (log2)” value is on record?
Answer: -1.58

Question: Which “soluble fraction (log2)” value does the source give for “HMKKYEFIEDLPGVGPATAQKLRDLGYHTVESLAMATARELEPIGVGEKKAFSMIEAARSAIGFS” here?
Answer: 0.284

Question: Which “soluble fraction (log2)” value does the source give for “HMKKYISEEQAKQAALETAGGGSVVKIKFTTDDGIKVYEIDIINGNYEYEITVHAETGKILDVDKERIH” here?
Answer: -1.6

Question: For “HMKLELSNDFYNKIRLARKENGLTQEDLAEKLNMKVGVIQKIENGVRQTDSNLMKISKFLGVEIYVE”, which “soluble fraction (log2)” value is on record?
Answer: -1.98

Question: With “HMKLPNGYGGIAKLSGKRRNPWRVRVTKGWSVDEQTGKAKQLFSTLGYYPTRKDALAALSAYNQNP” as the sequence, how does the “soluble fraction (log2)” value read?
Answer: -1.64

Question: Which “soluble fraction (log2)” value does the source give for “HMKLRLGVNIDPVATVRNARGSAYPDPVRAAIIAQEAGADGITAHLREDRRHIVDQDITSIIKAIDIPLNF” here?
Answer: -0.129

Question: Which “soluble fraction (log2)” value does the source give for “HMKLRSIQEQVQYLEKVDNQKAMQIILNMNDKASAVQILRNMKKEKAAAILAQMDPLQAAQILEDLA” here?
Answer: -0.34

Question: For “HMKLSDDIIVDTIKEIIEENKNMIEQRKMGAMGPLMGKAMAKFKGKADGQTVSNVIKDEILNIIN”, which “soluble fraction (log2)” value is on record?
Answer: -0.0773

Question: For “HMKLSIEDLAAELIRKIEAGDIGNEQGKMPSERELLAIYPVSRYTLRQALNKLSKMGWIYQMQGRGSYIRF”, which “soluble fraction (log2)” value is on record?
Answer: -1.48

Question: With “HMKLSNELLNAIMLIKKGIRNPTSLAQRLNTDTQYAKNLLEHLKMTGLINEHSRLTSRGLDIFHQK” as the sequence, how does the “soluble fraction (log2)” value read?
Answer: 0.356

Question: For “HMKLTEEEFNAKRKAYLDRLETLNDEAVIKATFMEAASGLGLQKGSAEFGDLRKYFVDRIVDIK”, which “soluble fraction (log2)” value is on record?
Answer: 1.01

Question: For “HMKLTEGETIFLNESDTADWKKIPGIGSVYASRIVKYRNLLGGFVSVNQLREVYGIDDELFAKIYPYI”, which “soluble fraction (log2)” value is on record?
Answer: 0.085

Question: Which “soluble fraction (log2)” value does the source give for “HMKLTESQLHKFTNDAVLAHIRNLIEFKGAFTEDDIEPIIRDRAAVYGIDLEDEDYKKVKTDVEYHFK” here?
Answer: -0.0402

Question: With “HMKLVELVGSPKQIAWAEDIRKNMISYLSALVRKYEAENRPARAEKRAKDMEILSNIKEASWFIENRS” as the sequence, how does the “soluble fraction (log2)” value read?
Answer: -0.733

Question: Which “soluble fraction (log2)” value does the source give for “HMKMAKTIKEIAEEIGVSKQAVFKKIKQVPLSTEIEKFISTVDGKKLVSVDGENLIKQAFQR” here?
Answer: 0.355

Question: For “HMKMLKAPIPGTIIEVKVNPGQTVNDGDVAVVLEAMKMESDIHFNSSGKVKKIHVNKGDSVQEGDDLIELE”, which “soluble fraction (log2)” value is on record?
Answer: 0.0235

Question: Which “soluble fraction (log2)” value does the source give for “HMKMNRELNQRQIKMLDYLSVNPKTTRKQYTKMMGISFMTSYRDIQELIDKAYIISKGQGRGTYYILAN” here?
Answer: -0.709

Question: Which “soluble fraction (log2)” value does the source give for “HMKMQIGEIIRKYRKSNHMTQEEMAERLGVSAPAVNKWENGNSMPDIMLLAPITRLLGISLDELLSFE” here?
Answer: -2.26

Question: With “HMKMSVEEVNLSPRTTNALINNDIKTMKDLVALTDTELRDLKGFGSKAYEEVKEKLSELGLSTQ” as the sequence, how does the “soluble fraction (log2)” value read?
Answer: 0.503

Question: Which “soluble fraction (log2)” value does the source give for “HMKMSVKNEIISLLEKNRDTSISGQVIADSLNVTRAAVWKAIKVLKEEGYNIDGTPNKGYILLGNN” here?
Answer: -1.22

Question: For “HMKMTFGENLHKLRKIYRLSQEDVASAINLKRSDIAAVEKGDRVLNDEELDKLADFIGIDIVDLL”, which “soluble fraction (log2)” value is on record?
Answer: -0.479

Question: Which “soluble fraction (log2)” value does the source give for “HMKMVSTPTGTRISLTQVKEFISNASFDDMKEILLEVLAWFKAHNLGNPFNYNRAFEFIVAH” here?
Answer: -0.256

Question: Which “soluble fraction (log2)” value does the source give for “HMKNELNSKLIISIKEALPPQIKVATYLMDLLSLGREAVYRRIRGDVSFDLEELSIISKALNISIDDVL” here?
Answer: -3.9
